According to article PMC8215292, “Functional impact of intramolecular cleavage and dissociation of adhesion G protein–coupled receptor GPR133 (ADGRD1) on canonical signaling” (The Journal of Biological Chemistry, 2021):

Tests used:
[1] = target: T1, GPR133 (ADGRD1) C-terminal fragment with C-terminal Twin-Strep-tag, cleaved from C-terminally … (human); test: pull-down; C-terminal Twin-Strep tag purification on Strep-Tactin from the Nuc/ER/Golgi subcellular fraction of HEK293T cells (1% DDM); Western blot, densitometry of NTF/CTF; settings: partners not purified
T1 construct: also called CTF; GPR133 CTF; source: HEK293T, transfected, in whole-cell lysate or subcellular fractions; not shown: Twin-Strep, C-terminal, kept
T1 chain: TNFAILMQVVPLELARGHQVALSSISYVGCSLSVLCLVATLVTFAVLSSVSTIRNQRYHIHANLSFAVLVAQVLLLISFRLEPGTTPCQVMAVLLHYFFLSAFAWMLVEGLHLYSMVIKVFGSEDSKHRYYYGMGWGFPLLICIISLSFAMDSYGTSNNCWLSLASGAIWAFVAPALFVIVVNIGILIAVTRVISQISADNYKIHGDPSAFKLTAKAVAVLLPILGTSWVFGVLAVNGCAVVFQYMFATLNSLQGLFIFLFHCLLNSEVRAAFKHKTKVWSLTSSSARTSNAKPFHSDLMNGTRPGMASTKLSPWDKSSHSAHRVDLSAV

[2] = target: T1, GPR133 (ADGRD1) C-terminal fragment …; test: pull-down; C-terminal Twin-Strep tag purification on Strep-Tactin from the plasma membrane subcellular fraction of HEK293T cells (1% DDM); Western blot, densitometry of NTF/CTF; settings: partners not purified

B1: GPR133 (ADGRD1) N-terminal fragment, cleaved from C-terminally Twin-Strep-tagged WT GPR133 (domain or fragment, human)
chain: VYSRSQDHPGFQVLASASHYWPLENVDGIHELQDTTGDIVEGKVNKGIYLKEEKGVTLLYYGRYNSSCISKPEQCGPEGVTFSFFWKTQGEQSRPIPSAYGGQVISNGFKVCSSGGRGSVELYTRDNSMTWEASFSPPGPYWTHVLFTWKSKEGLKVYVNGTLSTSDPSGKVSRDYGESNVNLVIGSEQDQAKCYENGAFDEFIIWERALTPDEIAMYFTAAIGKHALLSSTLPSLFMTSTASPVMPTDAYHPIITNLTEERKTFQSPGVILSYLQNVSLSLPSKSLSEQTALNLTKTFLKAVGEILLLPGWIALSEDSAVVLSLIDTIDTVMGHVSSNLHGSTPQVTVEGSSAMAEFSVAKILPKTVNSSHYRFPAHGQSFIQIPHEAFHRHAWSTVVGLLYHSMHYYLNNIWPAHTKIAEAMHHQDCLLFATSHLISLEVSPPPTLSQNLSGSPLITVHLKHRLTRKQHSEATNSSNRVFVYCAFLDFSSGEGVWSNHGCALTRGNLTYSVCRCTHL
modifications: glycosylated (immaturely and maturely glycosylated forms; nine N-linked glycosylation sites predicted within the NTF)
notes: signal peptide in the construct; codon-optimized cDNA of WT human GPR133 from Axxam; also called NTF; GPR133 NTF; source: HEK293T, transfected, in whole-cell lysate or subcellular fractions
[1]
  NTF/CTF ratio in the elution: 1
[2]
  NTF/CTF ratio in the elution: 0.17
